Test in all cases: native gel or EMSA
(In general: In EMSA bound probe runs differently from free probe, usually more slowly.)

Assay [1] addresses CthedisKatG W90V (Chaetomium thermophilum var. dissitum).
Assay [2] deals with CthedisKatG, thermophilic catalase–peroxidase from Chaetomium thermophilum var. dissitum (wild type) (Chaetomium thermophilum var. dissitum).
In assay [3] the target is CthedisKatG W90F (Chaetomium thermophilum var. dissitum).

The stoichiometry N is a count of units in the complex or per binding partner.

As for CthedisKatG W90V (enzyme), in assay [1], the stoichiometry N amounted to 2. With “CthedisKatG, thermophilic catalase–peroxidase from Chaetomium thermophilum var. dissitum (wild type) (enzyme)”, in assay [2], the stoichiometry N was 2. In assay [3], CthedisKatG W90F (enzyme) displayed a stoichiometry N of 2.

These data come from paper PMC10376177.
